Experimental findings from paper PMC11040377, “Lymphocyte‐Activation Gene 3 Facilitates Pathological Tau Neuron‐to‐Neuron Transmission” (Advanced Science, 2024) are described below.

One test concerns the target amyloid-β (Aβ) PFF. Kind of test: cell surface binding assay (streptavidin-alkaline phosphatase staining); SH-SY5Y cells transfected with Lag3 or its deletion mutants; biotin-labelled ligand at different concentrations (monomer equivalent) in DMEM with 10% FBS, 2 h at RT; washed, fixed, bound biotin detected with streptavidin-AP and BCIP/NBT; intensity by ImageJ, KD by GraphPad Prism. Particulars: one partner purified.

The target of test [1] is Tau oligomers (globular, 30% sucrose fraction), biotin-labelled (human, biotin). The description is as above. The note with it: one partner purified.
In test [2] the target is T1, Tau-biotin PFF (AD-Tau-induced Tau preformed fibrils, biotin-labelled) (human, UniProt P10636-8 1-441, biotin (Sulfo-NHS-LC-Biotin)).
T1 construct: Tau, human, WT isoform T40 (2N4R), 441 amino acid residues; Fibrillar assembly of many Tau chains; concentrations are monomer equivalents; also called Tau PFF; AD-Tau-induced Tau PFF-biotin; source: E. coli BL21(DE3), purified (HiTrap SP HP); fibrillised with AD-Tau seeds from AD brains, sonicated
T1 sequence (P10636 other isoform, or with tags, fused parts or gaps): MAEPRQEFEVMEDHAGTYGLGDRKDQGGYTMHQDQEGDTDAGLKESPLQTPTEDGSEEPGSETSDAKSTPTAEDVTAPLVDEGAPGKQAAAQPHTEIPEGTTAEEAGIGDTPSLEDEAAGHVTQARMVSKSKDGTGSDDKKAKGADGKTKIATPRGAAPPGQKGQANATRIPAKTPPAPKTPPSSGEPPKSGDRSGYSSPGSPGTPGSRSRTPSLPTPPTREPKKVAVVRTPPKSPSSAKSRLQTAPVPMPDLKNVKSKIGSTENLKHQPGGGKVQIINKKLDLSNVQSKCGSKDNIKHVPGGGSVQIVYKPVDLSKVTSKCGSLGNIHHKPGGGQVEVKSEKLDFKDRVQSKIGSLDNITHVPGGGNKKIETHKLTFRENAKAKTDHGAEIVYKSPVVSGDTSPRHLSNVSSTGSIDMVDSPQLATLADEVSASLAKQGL
Nature of the test: ELISA; Tau-biotin PFF and human recombinant LAG3; format not described in the text shown. The note with it: both partners purified. For orientation: ELISA stands for enzyme-linked immunosorbent assay.

B1: Lag3 (lymphocyte-activation gene 3), on transfected SH-SY5Y cells (receptor, UniProt Q61790 24-521, looked up)
chain: GPGKELPVVWAQEGAPVHLPCSLKSPNLDPNFLRRGGVIWQHQPDSGQPTPIPALDLHQGMPSPRQPAPGRYTVLSVAPGGLRSGRQPLHPHVQLEERGLQRGDFSLWLRPALRTDAGEYHATVRLPNRALSCSLRLRVGQASMIASPSGVLKLSDWVLLNCSFSRPDRPVSVHWFQGQNRVPVYNSPRHFLAETFLLLPQVSPLDSGTWGCVLTYRDGFNVSITYNLKVLGLEPVAPLTVYAAEGSRVELPCHLPPGVGTPSLLIAKWTPPGGGPELPVAGKSGNFTLHLEAVGLAQAGTYTCSIHLQGQQLNATVTLAVITVTPKSFGLPGSRGKLLCEVTPASGKERFVWRPLNNLSRSCPGPVLEIQEARLLAERWQCQLYEGQRLLGATVYAAESSSGAHSARRISGDLKGGHLVLVLILGALSLFLLVAGAFGFHWWRKQLLLRRFSALEHGIQPFPAQRKIEELERELETEMGQEPEPEPEPQLEPEPRQL
notes: also called FL; Lag3-expressing SH-SY5Y cells; source: SH-SY5Y cells, transiently transfected (Lipofectamine 2000), on cells
A word on the Kd: it is the equilibrium constant for the complex coming apart. Turning to B1, the Kd in the test with amyloid-β (Aβ) PFF came out at 310 nM; in test [1], 1300 nM.

B2: human recombinant LAG3 (receptor)
chain: LQPGAEVPVVWAQEGAPAQLPCSPTIPLQDLSLLRRAGVTWQHQPDSGPPAAAPGHPLAPGPHPAAPSSWGPRPRRYTVLSVGPGGLRSGRLPLQPRVQLDERGRQRGDFSLWLRPARRADAGEYRAAVHLRDRALSCRLRLRLGQASMTASPPGSLRASDWVILNCSFSRPDRPASVHWFRNRGQGRVPVRESPHHHLAESFLFLPQVSPMDSGPWGCILTYRDGFNVSIMYNLTVLGLEPPTPLTVYAGAGSRVGLPCRLPAGVGTRSFLTAKWTPPGGGPDLLVTGDNGDFTLRLEDVSQAQAGTYTCHIHLQEQQLNATVTLAIITVTPKSFGSPGSLGKLLCEVTPVSGQERFVWSSLDTPSQRSFSGPWLEAQEAQLLSQPWQCQLYQGERLLGAAVYFTELSSPGAQRSGRAPGALPAGHL
As for B2, the Kd in test [2] was found to be 3 nM.
